Values quoted from earlier work, collected in article PMC6502704.
Read-outs that look alike come from different tables or passages of the source. Blank lines part the entries; values can stand above or below the substance they belong to.

Legend:
BMAL1 TAD (Mus musculus) [1] = biological target: BMAL1 TAD (Mus musculus) (UniProt Q9WTL8)
BMAL1 TAD (Mus musculus) [2] = biological target: BMAL1 TAD (Mus musculus) (UniProt Q9WTL8); remark: listed apart in the source
[3] = biological target: BMAL1 577-625 (Mus musculus) (UniProt Q9WTL8)
[4] = biological target: BMAL1 577-625 (Mus musculus) (UniProt Q9WTL8); remark: listed apart in the source
[5] = biological target: BMAL1 490-625 (Mus musculus) (UniProt Q9WTL8)

Kd (BMAL1 TAD (Mus musculus) [1]): 2 µM
Substance: CBP KIX (from UniProt P45481)

Kd (BMAL1 TAD (Mus musculus) [2]): 10 µM
Substance: CRY1 (from UniProt P97784)

Kd [3]: 10 µM
Substance: CRY1 CCT (from UniProt P97784)

Kd [4]: 10 µM | Kd [5]: 10 µM
Substance: CRY2 CCT (from UniProt Q9R194)
